Experimental data as given in patent US20240376170A1 (BRIGHT PEAK THERAPEUTICS, published 2024).
Bridges are numbered along the chain shown (N, C = ends). Primed or numbered codes have the meaning given here. [ ]: non-standard residue; d: D form. 8x polyethylene glycol‑amino = O-(8x polyethylene glycol-amino)-tyrosine, SITE 45; 9x polyethylene glycol‑azido = O-(9x polyethylene glycol-azido)-tyrosine, SITE 42; Ygp = O-(8x polyethylene glycol-amino)-tyrosine (Tyr, amino-capped PEG8); Yn3 = O-(9x polyethylene glycol-azido)-tyrosine (Tyr, azide-capped PEG9); Ygp″ = O-(8x polyethylene glycol-amino)-tyrosine; Yn3″ = O-(9x polyethylene glycol-azido)-tyrosine; PEG4′ = 4x polyethylene glycol; hSer = N[C@@H](CCO)C(=O)O; Nle = CCCC[C@H](N)C(=O)O

T1: IL-2 receptor βγ complex (human, UniProt P14784 27-551; P31785 23-369)
T1 sequence (looked up) 1: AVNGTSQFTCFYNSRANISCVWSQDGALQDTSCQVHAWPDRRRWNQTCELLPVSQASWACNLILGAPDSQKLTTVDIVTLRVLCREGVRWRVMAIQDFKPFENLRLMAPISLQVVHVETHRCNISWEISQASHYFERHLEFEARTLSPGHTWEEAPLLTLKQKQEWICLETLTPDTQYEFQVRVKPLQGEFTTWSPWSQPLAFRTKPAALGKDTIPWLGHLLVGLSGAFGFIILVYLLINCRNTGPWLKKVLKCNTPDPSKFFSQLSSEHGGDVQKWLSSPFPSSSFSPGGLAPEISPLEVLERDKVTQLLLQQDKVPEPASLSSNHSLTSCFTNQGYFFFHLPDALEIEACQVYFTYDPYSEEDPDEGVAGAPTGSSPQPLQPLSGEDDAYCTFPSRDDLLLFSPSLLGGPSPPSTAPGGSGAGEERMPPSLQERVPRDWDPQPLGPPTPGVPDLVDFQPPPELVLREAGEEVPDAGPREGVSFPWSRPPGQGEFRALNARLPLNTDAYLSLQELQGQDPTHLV
T1 sequence (looked up) 2: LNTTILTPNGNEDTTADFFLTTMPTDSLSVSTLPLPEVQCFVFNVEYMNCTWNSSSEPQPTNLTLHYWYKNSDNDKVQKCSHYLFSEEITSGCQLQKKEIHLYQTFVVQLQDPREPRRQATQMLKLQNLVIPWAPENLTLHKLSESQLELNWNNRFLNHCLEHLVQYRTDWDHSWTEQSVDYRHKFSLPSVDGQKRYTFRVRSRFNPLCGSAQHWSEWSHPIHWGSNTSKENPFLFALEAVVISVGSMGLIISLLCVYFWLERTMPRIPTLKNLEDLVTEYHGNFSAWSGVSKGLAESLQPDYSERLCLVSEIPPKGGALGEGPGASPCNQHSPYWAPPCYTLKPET

B1: CMP-328, Matriptase cleaved molecule (ligand)
chain: APTSSSTKKTQLQLEHLLLDLQEILNGINNYKNPKLTR[Nle]L[hSer][Yn3″]KF[Ygp″][Nle]PKKATELKHLQCLEEELKPLEEVL[hSer]LAQSKNFHLRPRDLISNINVIVLELKGSETTF[hSer]CEYADETATIVEFLNRWITFSQSIISTLT
modifications: ends and bridges not checked; also: after matriptase cleavage, remnants of the Lys9–Glu23 peptide linker not given here
B2: CMP-328, uPa cleaved molecule (ligand)
chain: APTSSSTKKTQLQLEHLLLDLQEILNGINNYKNPKLTR[Nle]L[hSer][Yn3″]KF[Ygp″][Nle]PKKATELKHLQCLEEELKPLEEVL[hSer]LAQSKNFHLRPRDLISNINVIVLELKGSETTF[hSer]CEYADETATIVEFLNRWITFSQSIISTLT
modifications: ends and bridges not checked; also: after uPa cleavage, remnants of the Lys9–Glu23 peptide linker not given here
B3: CMP-329 (ligand)
chain: APTSSSTKKTQLQLEHLLLDLQEILNGINNYKNPKLTR[Nle]L[hSer][Yn3″]KF[Ygp″][Nle]PKKATELKHLQCLEEELKPLEEVL[hSer]LAQSKNFHLRPRDLISNINVIVLELKGSETTF[hSer]CEYADETATIVEFLNRWITFSQSIISTLT
modifications: bridge 9-23; not fully specified (bridges); ends not checked
B4: CMP-329, MMP2 cleaved molecule (ligand)
chain: APTSSSTKKTQLQLEHLLLDLQEILNGINNYKNPKLTR[Nle]L[hSer][Yn3″]KF[Ygp″][Nle]PKKATELKHLQCLEEELKPLEEVL[hSer]LAQSKNFHLRPRDLISNINVIVLELKGSETTF[hSer]CEYADETATIVEFLNRWITFSQSIISTLT
modifications: ends and bridges not checked; also: after MMP2 cleavage, remnants of the Lys9–Glu23 peptide linker not given here
B5: CMP-329, Matriptase cleaved molecule (ligand)
chain: APTSSSTKKTQLQLEHLLLDLQEILNGINNYKNPKLTR[Nle]L[hSer][Yn3″]KF[Ygp″][Nle]PKKATELKHLQCLEEELKPLEEVL[hSer]LAQSKNFHLRPRDLISNINVIVLELKGSETTF[hSer]CEYADETATIVEFLNRWITFSQSIISTLT
modifications: ends and bridges not checked; also: after matriptase cleavage, remnants of the Lys9–Glu23 peptide linker not given here
B6: CMP-329, uPa cleaved molecule (ligand)
chain: APTSSSTKKTQLQLEHLLLDLQEILNGINNYKNPKLTR[Nle]L[hSer]Y(9x polyethylene glycol‑azido)KFY(8x polyethylene glycol‑amino)[Nle]PKKATELKHLQCLEEELKPLEEVL[hSer]LAQSKNFHLRPRDLISNINVIVLELKGSETTF[hSer]CEYADETATIVEFLNRWITFSQSIISTLT
modifications: not fully specified; also: K9 and E23 side chains attached to another sequence, uPa-cleaved product, remnants not given here
B7: CMP-330 (ligand)
chain: APTSSSTKKTQLQLEHLLLDLQEILNGINNYKNPKLTR[Nle]L[hSer]Y(9x polyethylene glycol‑azido)KFY(8x polyethylene glycol‑amino)[Nle]PKKATELKHLQCLEEELKPLEEVL[hSer]LAQSKNFHLRPRDLISNINVIVLELKGSETTF[hSer]CEYADETATIVEFLNRWITFSQSIISTLT
modifications: bridge 9-23; not fully specified (bridges)
B8: CMP-330, MMP2 cleaved molecule (ligand)
chain: APTSSSTKKTQLQLEHLLLDLQEILNGINNYKNPKLTR[Nle]L[hSer]Y(9x polyethylene glycol‑azido)KFY(8x polyethylene glycol‑amino)[Nle]PKKATELKHLQCLEEELKPLEEVL[hSer]LAQSKNFHLRPRDLISNINVIVLELKGSETTF[hSer]CEYADETATIVEFLNRWITFSQSIISTLT
modifications: not fully specified; also: K9 and E23 side chains attached to another sequence, MMP2-cleaved product, remnants not given here
B9: CMP-330, Matriptase cleaved molecule (ligand)
chain: APTSSSTKKTQLQLEHLLLDLQEILNGINNYKNPKLTR[Nle]L[hSer]Y(9x polyethylene glycol‑azido)KFY(8x polyethylene glycol‑amino)[Nle]PKKATELKHLQCLEEELKPLEEVL[hSer]LAQSKNFHLRPRDLISNINVIVLELKGSETTF[hSer]CEYADETATIVEFLNRWITFSQSIISTLT
modifications: not fully specified; also: K9 and E23 side chains attached to another sequence, matriptase-cleaved product, remnants not given here
B10: CMP-330, uPa cleaved molecule (ligand)
chain: APTSSSTKKTQLQLEHLLLDLQEILNGINNYKNPKLTR[Nle]L[hSer]Y(9x polyethylene glycol‑azido)KFY(8x polyethylene glycol‑amino)[Nle]PKKATELKHLQCLEEELKPLEEVL[hSer]LAQSKNFHLRPRDLISNINVIVLELKGSETTF[hSer]CEYADETATIVEFLNRWITFSQSIISTLT
modifications: not fully specified; also: Lys9 side chain attached to another sequence, Glu23 side chain attached to another sequence
B11: CMP-317 (ligand)
chain: GSGSGSG[PEG4′]APTSSSTKKTQLQLEHLLLDLQEILNGINNYKNPKLTR[Nle]L[hSer][Yn3]KF[Ygp][Nle]PKKATELKHLQCLEEELKPLEEVL[hSer]LAQSKNFHLRPRDLISNINVIVLELKGSETTF[hSer]CEYADETATIVEFLNRWITFSQSIISTLT
modifications: bridge N-31; not fully specified (bridges); ends not checked
B12: CMP-317, MMP2 cleaved molecule (ligand)
chain: APTSSSTKKTQLQLEHLLLDLQEILNGINNYKNPKLTR[Nle]L[hSer]Y(9x polyethylene glycol‑azido)KFY(8x polyethylene glycol‑amino)[Nle]PKKATELKHLQCLEEELKPLEEVL[hSer]LAQSKNFHLRPRDLISNINVIVLELKGSETTF[hSer]CEYADETATIVEFLNRWITFSQSIISTLT
modifications: also: A1 attached to another sequence via 4x polyethylene glycol, E23 side chain attached to another sequence, m119 after MMP2 cleavage, product not given here as a sequence
B13: CMP-318 (ligand)
chain: SGRVANLVGAPTSSSTKKTQLQLEHLLLDLQEILNGINNYKNPKLTR[Nle]L[hSer][Yn3]KF[Ygp][Nle]PKKATELKHLQCLEEELKPLEEVL[hSer]LAQSKNFHLRPRDLISNINVIVLELKGSETTF[hSer]CEYADETATIVEFLNRWITFSQSIISTLT
modifications: lactam N-32; ends not checked

Molecular target: T1, IL-2 receptor βγ complex
Assay: cell-based or functional assay

In order of rising “Average EC50, pSTAT5 Assay in NK cells” value:
1. B4  0.687 nM
2. B2  2.96 nM
3. B1  4.28 nM
4. B8  6.12 nM
5. B12  12.2 nM
6. B5  14.4 nM
7. B9  16.4 nM
8. B6  18.1 nM
9. B7  20.3 nM
10. B3  20.6 nM
11. B10  27 nM
12. B11  34.1 nM
13. B13  37.4 nM
